Laboratory results published in PMC7497631, “Role of Membrane Tension Sensitive Endocytosis and Rho GTPases in the Uptake of the Alzheimer’s Disease Peptide Aβ(1-42)” (ACS Chemical Neuroscience, 2020).

Key:
SH-SY5Y cells [1] = details: cited from earlier work; for internalization in presence of inhibitors of actin polymerization: SH-SY5Y cells
Description: Rho GTPases are important regulators of CIE (Figure 1).[30],[41] […] Since Cdc42 (and other Rho GTPases) regulate the actin cytoskeleton,[74] this would be consistent with our previously published result that inhibitors of actin polymerization reduced Aβ(1-40) and Aβ(1-42) but not Trf internalization in SH-SY5Y cells.[13] To f ... || We repeated this set of experiments, exploring also the Rho GTPases Rac1 and RhoA. Overexpression of EGFP-tagged Rac1 (DA Q61L, WT, and DN T17N) induced lamellipodia-like morphologies in transfected cells as expected from the literature.[74] […] The latter result is contrasting observations by ... || We report that Aβ(1-42) uptake into SH-SY5Y cells is sensitive to osmotic pressure-induced alterations in membrane tension, which points to the involvement of CLICs or macropinocytosis. Importantly, Aβ(1-42) behaves distinctively different than the CME-cargo Trf, but also dextran, which is an unspecific fluid-phase endocytosis marker.

SH-SY5Y cells [2] = assay: Cellular uptake quantified by flow cytometry during changes in membrane tension; assay type: cell-based, human; details: for cellular uptake during the recovery phase relative to uptake in isotonic media: 2 μM HF488-labeled Aβ(1-42) or 250 μg/mL AF647-labeled dextran 10 kDa, 10 min in isotonic medium after 10 min hypotonic (75% MQ), serum-free medium + 2% B-27, flow cytometry mean fluorescence, N = 8, n = 3–4; for effect of hypertonic media on uptake: addition of 100 mM NaCl to the culture medium, 2 μM HF488-Aβ(1-42), 250 μg/mL AF647-dextran 10 kDa, 10 min, flow cytometry, N = 4, n = 3–4
Description: Flow cytometry was used for quantification of cellular uptake.

SH-SY5Y cells [3] = assay: Live cell confocal microscopy of uptake during changes in membrane tension; details: 2 μM HF488-Aβ(1-42); for internalization during hypotonic conditions: 10 min in hypotonic medium (75% MQ water, 25% cell culture medium); for internalization during hypotonic conditions / internalization during recovery (re-exposure to isotonic conditions): 250 μg/mL AF647-dextran 10 kDa or 5 μg/mL AF488-Trf; for internalization during recovery (re-exposure to isotonic conditions): 10 min in isotonic medium after 10 min hypotonic (75% MQ); for internalization under isotonic conditions: 10 min in isotonic medium, 250 μg/mL AF647-dextran 10 kDa
Description: SH-SY5Y cells were incubated with Aβ(1-42), Trf, and dextran 10 kDa while exposed to changes in membrane tension and analyzed by confocal microscopy and flow cytometry. For uptake at isotonic conditions, the cells were washed 1× with serum-free medium, incubated with either 2 μM HF488-labeled Aβ(1-42), 5 μg/mL AF488-labeled Trf, or 250 μg/mL AF647-labeled dextran 10 kDa in serum-free medium with the addition of 2% B-27 for 10 min, washed 1× with serum free medium for microscopy, or 3×/2 min on ice with either ice-cold serum-free medium (Aβ(1-42) and dextran) or acidic buffer (0.1 M glycine-HCl buffer pH 2.5 with 150 mM NaCl; Trf)[80] and harvested for analysis by flow cytometry. […] Lastly, cells analyzed for uptake at recovery conditions were first pretreated with isotonic medium for 10 min followed by treatment in hypotonic medium for 10 min, whereupon they were exposed to the peptides and dextran in isotonic medium for 10 min.

SH-SY5Y cells [4] = assay: Cellular uptake by flow cytometry in cells transfected with EGFP-tagged Rho GTPases (Cdc42, Rac1, RhoA); details: for uptake on overexpression of DA EGFP-Cdc42 Q61L relative to nontransfected cells / uptake on overexpression of WT or DN EGFP-Cdc42 relative to nontransfected cells: ~24 h post-transfection; for uptake on overexpression of DA EGFP-Cdc42 Q61L relative to nontransfected cells: 1 μM HF647-Aβ(1-42) 1 h, 5 μg/mL AF647-Trf 5 min (N = 3, n = 4) or 125 μg/ml AF647-dextran 10 kDa 1 h (n = 4); for uptake on overexpression of WT or DN EGFP-Cdc42 relative to nontransfected cells / uptake on overexpression of all variants of EGFP-tagged RhoA (DA Q63L, WT, DN T19N) relative to nontransfected cells: 1 μM HF647-Aβ(1-42) 1 h or 5 μg/mL AF647-Trf 5 min; for uptake on overexpression of EGFP-tagged Rac1 (DA Q61L, WT, DN T17N) relative to nontransfected cells: 1 μM HF647-Aβ(1-42) 1 h (N = 3, n = 4) or 125 μg/ml AF647-dextran 10 kDa 1 h (n = 4); for uptake on overexpression of all variants of EGFP-tagged RhoA (DA Q63L, WT, DN T19N) relative to nontransfected cells: ~30 h post-transfection, N = 4, n = 4
Description: SH-SY5Y cells were passaged 2 days prior to transfection, grown to ∼70% confluency, and transfected with plasmids encoding for Rho GTPases (EGFP-tagged DA, WT, and DN variants of Cdc42, Rac1, and RhoA; see the above section Reagents) by electroporation using a Neon Transfection System (Invitrogen, Carlsbad, CA), following the protocol provided by the manufacturer and applying a single pulse of 1 100 V with a pulse width of 50 ms. The cells were transfected using 1 μg of plasmid DNA/100 000 cells in a 10 μL Neon Tip or 10 μg of plasmid DNA/10^6 cells in a 100 μL Neon Tip and plated immediately after. Based on the initial experiments, the analysis was set to ∼24 h, ∼27 h, and ∼30 h post-transfection for Cdc42, Rac1, and RhoA, respectively, by evaluating the time it took until the cells expressed the proteins and adapted the expected morphologies.
Flow cytometry was used for quantification of cellular uptake. […] All samples were kept on ice until they were analyzed on a Guava EasyCyte 8HT (Millipore, Darmstadt, Germany) that automatically retrieves samples from a 96-well plate. In order to exclude effects due to difference in delay time, we used mixed order of analysis, loading only a few samples at a time with the remaining samples kept on ice. Only the central cell cluster on the forward/side scatter (FSC/SSC) dot plot was analyzed, and for each sample 5 000 cells from within the gate were counted. […] The mean cellular uptake or level of Rho GTPase expression was estimated as the average fluorescence intensity of all cells within the gate. The mean cellular uptake was baseline corrected by subtracting the signal recorded for untreated cells. Each cell treatment was performed in three or four technical replicates (n = 3–4) and repeated on at least two separate occasions (N ≥ 2).
Statistical analysis was performed by matched sample ANOVA using GraphPad Prism software (GraphPad, San Diego, CA) on data that had been normalized so that the uptake in nontransfected cells was 100% for the individual experiments. Matched sample ANOVA was followed by multiple comparisons with the Bonferroni posthoc test to test for differences in mean peptide uptake between nontransfected cells and uptake at the different transfection efficiencies. This means that the reported individual p-values have been adjusted for the number of comparisons that were relevant to the experiment.

Row | Molecule | effect of macropinocytosis inhibitor on the uptake of Aβ(1-40) and Aβ(1-42) (SH-SY5Y cells [1]) | internalization in presence of inhibitors of actin polymerization (SH-SY5Y cells [1]) | cellular uptake during the recovery phase relative to uptake in isotonic media (SH-SY5Y cells [2]) | effect of hypertonic media on uptake (SH-SY5Y cells [2]) | internalization during hypotonic conditions (SH-SY5Y cells [3]) | internalization during recovery (re-exposure to isotonic conditions) (SH-SY5Y cells [3]) | internalization under isotonic conditions (SH-SY5Y cells [3]) | uptake on overexpression of DA EGFP-Cdc42 Q61L relative to nontransfected cells (SH-SY5Y cells [4]) | uptake on overexpression of WT or DN EGFP-Cdc42 relative to nontransfected cells (SH-SY5Y cells [4]; N = 3, n = 4) | uptake on overexpression of EGFP-tagged Rac1 (DA Q61L, WT, DN T17N) relative to nontransfected cells (SH-SY5Y cells [4]; ~27 h post-transfection) | uptake on overexpression of all variants of EGFP-tagged RhoA (DA Q63L, WT, DN T19N) relative to nontransfected cells (SH-SY5Y cells [4]) | further results
1 | Oc1ccc2ccccc2c1SSc1c(O)ccc2ccccc12 [IPA-3] | reductions | – | – | – | – | – | – | – | – | – | – | –
2 | COC[C@H]1OC(=O)c2coc3c2[C@@]1(C)C1=C(C3=O)[C@@H]2CCC(=O)[C@@]2(C)C[C@H]1OC(C)=O [wortmannin] | reductions | – | – | – | – | – | – | – | – | – | – | –
3 | Aβ(1-40): Amyloid-β isoform; uptake results quoted from the authors' earlier work | – | reduced | – | – | – | – | – | – | – | – | – | –
4 | Aβ(1-42): Synthetic Aβ(1-42) peptide, conjugated to the HiLyte Fluor HF488 or HF647 at the N-terminus, from Anaspec; applied in highly monomeric form | – | reduced | doubles | did not increase | little or no internalization | resumed to internalize | formation of small endosomal vesicles containing Aβ(1-42) was observed | reduced | no effect | None of the Rac1 variants had any effect | reduced | internalization by NIH-3T3 fibroblasts compared with CHO and SH-SY5Y (SH-SY5Y cells [1]): more
5 | Trf: AlexaFluor488- and AlexaFluor647-labeled Transferrin, ligand of clathrin-mediated endocytosis | – | not | – | – | blocked | remained low | – | reduced | no effect | – | reduced | uptake in cells with the highest concentration of WT and DN Rac1 (SH-SY5Y cells [4]; ~27 h post-transfection, 5 μg/mL AF488-labeled Trf 5 min, high gate, N = 3, n = 4): reduction; uptake in cells with medium expression level of DA Rac1 versus control (SH-SY5Y cells [4]; ~27 h post-transfection, 5 μg/mL AF488-labeled Trf 5 min, medium gate, N = 3, n = 4): slightly more
6 | dextran | – | – | ~8 times | did not increase | little or no internalization | induced | low | unaffected | – | did not alter | – | reduction of uptake in cells expressing DA RhoA (SH-SY5Y cells [4]; ~30 h post-transfection with RhoA Q63L, 125 μg/ml AF647-labelled dextran 10 kDa 1 h, n = 4): up to 50%
